Biological target: H4K16ac nucleosome
Assay: EMSA
Conditions: chain shown with the change

Kd: 810 nM
B1: Sir3 BAH domain (construct 1–214), P06701 D205N (protein)
chain: MAKTLKDLDGWQVIITDDQGRVIDDNNRRRSRKRGGENVFLKRISDGLSFGKGESVIFNDNVTETYSVYLIHEIRLNTLNNVVEIWVFSYLRWFELKPKLYYEQFRPDLIKEDHPLEFYKDKFFNEVNKSELYLTAELSEIWLKDFIAVGQILPESQWNDSSIDKIEDRDFLVRYACEPTAEKFVPIDIFQIIRRVKEMEPKQSNEYLKRVSVP

From article PMC6602975
